{"source": "patent US20100003690A1", "about": "(published 2010)", "binders": {"B1": {"name": "hERG 1a (other, human, UniProt Q12809 1-1159, looked up)", "chain": "MPVRRGHVAPQNTFLDTIIRKFEGQSRKFIIANARVENCAVIYCNDGFCELCGYSRAEVMQRPCTCDFLHGPRTQRRAAAQIAQALLGAEERKVEIAFYRKDGSCFLCLVDVVPVKNEDGAVIMFILNFEVVMEKDMVGSPAHDTNHRGPPTSWLAPGRAKTFRLKLPALLALTARESSVRSGGAGGAGAPGAVVVDVDLTPAAPSSESLALDEVTAMDNHVAGLGPAEERRALVGPGSPPRSAPGQLPSPRAHSLNPDASGSSCSLARTRSRESCASVRRASSADDIEAMRAGVLPPPPRHASTGAMHPLRSGLLNSTSDSDLVRYRTISKIPQITLNFVDLKGDPFLASPTSDREIIAPKIKERTHNVTEKVTQVLSLGADVLPEYKLQAPRIHRWTILHYSPFKAVWDWLILLLVIYTAVFTPYSAAFLLKETEEGPPATECGYACQPLAVVDLIVDIMFIVDILINFRTTYVNANEEVVSHPGRIAVHYFKGWFLIDMVAAIPFDLLIFGSGSEELIGLLKTARLLRLVRVARKLDRYSEYGAAVLFLLMCTFALIAHWLACIWYAIGNMEQPHMDSRIGWLHNLGDQIGKPYNSSGLGGPSIKDKYVTALYFTFSSLTSVGFGNVSPNTNSEKIFSICVMLIGSLMYASIFGNVSAIIQRLYSGTARYHTQMLRVREFIRFHQIPNPLRQRLEEYFQHAWSYTNGIDMNAVLKGFPECLQADICLHLNRSLLQHCKPFRGATKGCLRALAMKFKTTHAPPGDTLVHAGDLLTALYFISRGSIEILRGDVVVAILGKNDIFGEPLNLYARPGKSNGDVRALTYCDLHKIHRDDLLEVLDMYPEFSDHFWSSLEITFNLRDTNMIPGSPGSTELEGGFSRQRKRKLSFRRRTDKDTEQPGEVSALGPGRAGAGPSSRGRPGGPWGESPSSGPSSPESSEDEGPGRSSSPLRLVPFSSPRPPGEPPGGEPLMEDCEKSSDTCNPLSGAFSGVSNIFSFWGDSRGRQYQELPRCPAPTPSLLNIPLSSPGRRPRGDVESRLDALQRQLNRLETRLSADMATVLQLLQRQMTLVPPAYSAVTTPGPGPTSTSPLLPVSPLPTLTLDSLSQVSQFMACEELPPGAPELPQEGPTRRLSLPGQLGALTSQPLHRHGSDPGS"}}, "biological_target": "hERG 1b (human, UniProt Q12809 377-1159)", "experiment": "cell-based or functional assay", "data": [{"binder": "B1", "values": [{"measurement": "hERG 1b maturation by Western blot analysis", "result": "~3", "unit": "fold"}]}]}
